Measured values reported in patent publication US8003609B2, “Method for ameliorating pain by modification of NMDA receptors through inhibition of Src” (The Hospital for Sick Children, priority 2004, dated 2011).

Experiments:
[1] = target: T1, association of Src with the NMDAR complexes (Rattus norvegicus, UniProt P11662); assay: co-immunoprecipitation of Src with NMDARs from PSD proteins; type: binding
T1 construct: from tissue; host or cells: rat brain post-synaptic density fraction
Procedure: (§1) Detailed protocols for in vitro binding assays, pull down assays, immunoblotting, and co-immunoprecipitation techniques can be found in Pelkey et al. (Neuron 34:127-138 2002).
Post-synaptic density proteins (Kennedy et al. Proceedings of the National Academy of Science USA 80:7357-7361 1983) were prepared from rat brain as described in detail (Pelkey et al. Neuron 34:127-138 2002). Cellular fractionation of rat brain tissue into nuclear, heavy mitochondrial, light mitochondrial, microsomal, and cytosolic fractions was performed by differential centrifugation of tissue homogenate in 0.25 M sucrose/10 mM HEPES-NaOH, 1 mM EDTA, pH 7.4 with 2 μg each of aprotinin, pepstatin A, and leupeptin (Sigma, St. Louis, Mo.) at 4° C. Nuclei were pelleted by centrifugation at 1 000 g for 10 minutes, the supernatant was removed and spun at 3 000 g for 10 minutes to obtain a heavy mitochondrial pellet. The supernatant was removed and spun at 16 000 g for 15 minutes to obtain a light mitochondrial pellet. The supernatant was removed and spun at 100 000 g for 1 hour to obtain a microsomal pellet and the cytosolic fraction. All pellets were then resuspended in RIPA buffer (50 mM Tris pH 7.6, 150 mM NaCl, 1 mM EDTA, 1% NP-40, 2.5 mg/ml NaDOC, 1 mM Na3VO4 1 mM PMSF, and 2 μg/ml each of protease inhibitors). The light mitochondrial fraction was used in subsequent experiments. […]

AMPA receptor = assay: mEPSC whole cell recordings in cultured hippocampal neurons, AMPA receptor component; type: cell-based, rat; details: under the recording conditions used
Procedure: (§2) Fetal rat hippocampal neurons were prepared, cultured, and used for electrophysiological recordings 12-17 days after plating. Methods for whole cell recordings are described in Pelkey et al. (Neuron 34:127-138 2002).
(§3) In contrast, in control experiments administering EPQ(pY)EEIPIA (SEQ ID NO:5) increased the NMDAR component of mEPSCs by 172±28% and application of Src40-58 decreased the NMDAR component to 56±4% (FIGS. 5D-F). […] Composite traces are shown in black, the NMDAR component in dark grey, and the AMPAR component in light grey. Scale bars are 50 ms/10 pA. […] NMDA component data were calculated as Q20′/Q2′, and AMPA component data were calculated as A20′/A2′. […] An * indicates a significant difference, Student's t-test, p<0.05. Taking our results together, it is concluded that Src-dependent regulation of the activity of NMDARs depends on expression of ND2 through its anchoring of Src to the NMDAR complex.

NMDAR = assay: mEPSC whole cell recordings in cultured hippocampal neurons, NMDAR component; type: cell-based, rat
Procedure: as §2, §3

LTP in CA1 neurons = details: cited from earlier work
ND2.3-GST = target: T2, ND2.3-GST (Homo sapiens, UniProt P03891); assay: dot blot of biotinylated Src peptides on ND2.3-GST; type: binding; details: biotinylated peptide
T2 construct: amino acids 1-188 (ND2.3-GST); made in house; host or cells: bacteria
Procedure: (§4) Src, Fyn, and ND2 recombinant proteins were prepared. The cDNAs encoding the SH3 and SH2 domains of mouse n-Src and Fyn were PCR subcloned, ligated in frame into pGEX4T-1 (Amersham Pharmacia Biotech, Baie d'Urfé, Québec), and sequenced. These plasmids, as well as plasmids encoding the unique domains of Src and Fyn in pGEX2T'6, were transformed into BL21 bacteria, and GST fusion proteins were purified by glutathione affinity chromatography. To create the ND2.1, ND2.2, and ND2.3 GST fusion proteins, cDNAs encoding amino acids 239-321 (ND2.1-GST; SEQ ID NO:7), amino acids 189-238 (ND2.2-GST; SEQ ID NO:11), and amino acids 1-188 (ND2.3-GST; SEQ ID NO:13) of human ND2 were PCR subcloned and ligated into pGEX4T-1 (the nucleotide sequence encoding ND2 is SEQ ID NO:8 and the amino acid sequence is SEQ ID NO:9; the nucleotide sequences encoding ND2.1; ND2.2 and ND2.3 are SEQ ID NOS:6, 10 and 12, respectively). Using PCR-based single nucleotide mutagenesis, all cDNAs encoding ND2 fusion proteins were corrected for differences between mitochondrial and nuclear codons to prevent premature translation termination and protein truncation. […]
(§5) Src40-58 and scrambled Src peptides were biotinylated by incubating with Sulfo-NHS-Biotin (Pierce Chemical Co., Rockford, Ill.) for 30 minutes at room temperature (SEQ ID NO:4, Src protein). […] Bound probe was then detected on film using an ECL kit.

ND2.2-GST = target: T3, ND2.2-GST (Homo sapiens, UniProt P03891); assay: dot blot of biotinylated Src peptides on ND2.2-GST; type: binding; details: biotinylated peptide
T3 construct: amino acids 189-238 (ND2.2-GST); made in house; host or cells: bacteria
Procedure: as §4, §5

[2] = target: T4, interaction between the ND2.1-GST and Src unique domain proteins (Homo sapiens, UniProt P03891, A265T); assay: ND2.1-GST probed with biotinylated Src unique domain in the presence of peptide or antibody; type: binding; details: in vitro, ND2.1-GST incubated with peptide
T4 construct: made in house; host or cells: BL21 bacteria
From the text: as §1
ND2 acts as an adapter protein for Src. […] Furthermore, the effect of Src40-58 on the interaction between Src and ND2 was examined (FIGS. 4D and 4E). […] Thus, it was concluded that amino acids 40-58 of Src interact with the region spanned by ND2.1, thereby mediating the binding between the Src unique domain and ND2.

T1 sequence (P11662 whole entry, other chains not shown): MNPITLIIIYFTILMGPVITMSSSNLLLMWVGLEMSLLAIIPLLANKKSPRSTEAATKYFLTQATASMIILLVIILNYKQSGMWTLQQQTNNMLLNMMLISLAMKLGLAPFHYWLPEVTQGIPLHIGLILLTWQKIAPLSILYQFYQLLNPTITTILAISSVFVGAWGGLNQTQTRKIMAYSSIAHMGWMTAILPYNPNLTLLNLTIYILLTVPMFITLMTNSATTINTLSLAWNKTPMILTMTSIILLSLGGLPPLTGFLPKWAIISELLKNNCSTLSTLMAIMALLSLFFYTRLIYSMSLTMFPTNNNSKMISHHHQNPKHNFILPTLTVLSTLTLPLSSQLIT
T3 sequence (P03891 189-238): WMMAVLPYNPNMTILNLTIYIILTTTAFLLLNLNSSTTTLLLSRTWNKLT
T4 sequence (P03891 239-318 A265T): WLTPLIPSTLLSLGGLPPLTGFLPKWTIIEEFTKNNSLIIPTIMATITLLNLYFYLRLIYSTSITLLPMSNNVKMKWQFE
T2 sequence (P03891 1-188): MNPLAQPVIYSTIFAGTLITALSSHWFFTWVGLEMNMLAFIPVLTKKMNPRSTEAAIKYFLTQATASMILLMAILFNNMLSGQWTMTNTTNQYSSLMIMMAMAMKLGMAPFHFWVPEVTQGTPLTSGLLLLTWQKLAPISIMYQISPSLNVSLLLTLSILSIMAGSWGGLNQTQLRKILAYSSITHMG

Src40-58: peptide comprising amino acid residues 40-58 of SEQ ID NO:4 (Src) (PASADGHRGPSAAFAPAAA; listed as Homo sapiens)
co-immunoprecipitation of Src with NMDARs [1]: suppressed | AMPA receptor component of the mEPSCs (AMPA receptor): neither of these reagents affected | NMDAR component of mEPSCs, decreased to (NMDAR; control experiments, cultured hippocampal neurons): 56±4% | NMDAR component of the mEPSCs (NMDAR; neurons treated with chloramphenicol for 48 hours): not affected | LTP in CA1 neurons (LTP in CA1 neurons): prevented | binding to ND2.3-GST (ND2.3-GST): Neither Src40-58 nor scrambled Src40-58 bound | binding to ND2.2-GST (ND2.2-GST): Neither Src40-58 nor scrambled Src40-58 bound | effect on ND2.1-GST pulling down the Src unique domain protein [2]: prevented
